Measured values reported in the supplement of paper PMC9170038.

Test system: MS2 coat protein
Assay: apparent KD of MS2 coat protein; designed switch direction (-1 OFF switch, 1 ON switch): -1; higher = weaker reporter binding
In short: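 RNA switches sharing common flanks were transcribed by stalled E. coli RNA polymerase on Illumina chips. A doubling series of SNAP-549-labelled MS2 coat protein, from 0.7 or 1.5 nM to 3 µM, was applied in Tris-HCl pH 7.5 buffer with KCl, MgCl2, BSA, DTT, tRNA and Tween-20. Each step lasted 0.8–1.5 h at the bottom of the series and 10–20 min at the top. Normalised cluster fluorescence was curve-fitted, giving apparent KD as the per-design median over clusters.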

[1] = input ligand: microRNA oligo, concentration not stated
[2] = Eterna round: R95, input ligand: FMN 200 uM
[3] = Eterna round: R95, input ligand: microRNA oligo, concentration not stated
[4] = Eterna round: R95, input ligand: none

Sequence	apparent KD of MS2 coat protein (input ligand: FMN 200 uM)	apparent KD of MS2 coat protein [1]	apparent KD of MS2 coat protein (input ligand: none)	apparent KD of MS2 coat protein [2]	apparent KD of MS2 coat protein [3]	apparent KD of MS2 coat protein [4]
UGUUGUCGCGUAGGAUAUGUAUGAGGAUCACCCAUAAGAGUAUAUUUACCAUGAGGAUCACCCAUGUAGAAGGACGGGACAACU [pwkr exNG2 2xF5 1xFMN.12] (Eterna round: R96, puzzle: Exclusion NG 2)	232 nM	75.6 nM	127 nM	–	–	–
UAUCAACAUGAGGAUCACCCAUGUGAGGAUAUCAAAACCAGAGCGGAUCUCUGGCCCAUGAGAAGGUACAUGGU [ElNandoxlusion 6 - Jieux - Exclusion 1] (Eterna round: R97, puzzle: Exclusion 1)	111 nM	–	22.3 nM	–	–	–
GGCACACAUGAGGAUCACCCAUGUGAGGAUAUGGUGCGAUCGUCGAAAGACGAUAGCACUAGAAGGCACAUGCC [Eli x1 4.06] (Eterna round: R97, puzzle: Exclusion 1)	28.2 nM	–	16.1 nM	–	–	–
UUUUAGAGAGGAUAUAUUAUGUGAAACAUGAGGAUCACCCAUGUAAUAUAAUGGAUGUAAAUAGAAGGCUCAUUUA [Mat - Exclusion 5 - JL mod - D22] (puzzle: Exclusion 5)	–	–	–	28.4 nM	28.4 nM	41.1 nM
UACAUGAGGAUCACCCAUGUUUUGUCGUGUAUGGUAUUUAUCUAGGAUAUCAAUUUAGUUAUUUAUGAGAAGGAGAAUAUUAAU [JMF's solution 18] (Eterna round: R96, puzzle: Exclusion NG 3)	33.6 nM	32.8 nM	43.1 nM	–	–	–
GGUACUAACACGAAAGUGUUAGUACUGUAGGUUUGUGUUACAUGAGGAUCACCCAUGUCCUCAUAAGCUCGUCUUGU [JL-sv3-2.22 mat747 mod] (puzzle: Sensor v3, turn-off variant 2)	–	–	–	306 nM	246 nM	347 nM
AGGAGUAGUAUCCGAUCCUACAUGAGGAUCACCCAUGUAGCUAGACGUGCACGCGAUGCUCGUCAGACUACCAGAUG [salish99_TOv1_r3_034] (puzzle: Sensor v3, turn-off variant 1)	–	–	–	99.4 nM	116 nM	143 nM
AGGUGAUAUCUGUCGAUGGACAUGAGGAUCACCCAUGUGAGCUUUUUGCUCGUCUUAUAAACCGGUGACAGACCUUC [Sensor v3, turn-off variant 1 (MOD of Zalaso)] (puzzle: Sensor v3, turn-off variant 1)	–	–	–	49.8 nM	20.6 nM	69.4 nM
AUUUUGUCAGGAUAUGAUUAGUAGGACGAGAGUGCUACUACUUAGAAGGGACAUGAGGAUCACCCAUGUAUUCC [Bring Us a Shrubbery-08] (puzzle: Exclusion 4)	–	–	–	–	15 nM	–
GUUUAGUGAGGAUAUGUGGCUUCGAUCGUGAGAUCGAGGCUACAGAAGGCACAUGAGGAUCACCCAUGUUCCUA [salish99_ex4_r4_107] (Eterna round: R97, puzzle: Exclusion 4)	87.7 nM	–	16.5 nM	–	–	–
GAGCUAUGAGGAUAUGCAUAGAUACGGAUUCGUGUAGUACUACAUGAGGAUCACCCAUGUAGAAGGCGUGGCAG [Mat - Exclusion 2 - Mod of JL - D76] (puzzle: Exclusion 2)	–	–	–	–	13.9 nM	–
GGUUGGCGAGGAUAUACAUGAGGAUCACCCAUGUGAGAGUAAAAAGUGAGGAAGAAAAGUAGAAGGCGCUGACG [salish99_ex3_r3_011] (puzzle: Exclusion 3)	–	–	–	68.6 nM	36.3 nM	44 nM
AUUGAUAGCACAGGAUAUUGAGAUUUGAAUUGACAAGAAGGGUGUACAUGAGGAUCACCCAUGUAAUGGGAGAGUGGUUGAUUA [JR_ExcNG1_Sub002] (Eterna round: R96, puzzle: Exclusion NG 1)	365 nM	324 nM	582 nM	–	–	–
UCAUACGGUGAGGAUAUCUCCACUAAAGUGUGAAGAGAAGGCGCUACAUGAGGAUCACCCAUGUCUAUGGGCAG [Ex-6 Malc#15] (puzzle: Exclusion 6)	–	–	–	37.4 nM	75 nM	109 nM
UAAUGUGCGAGAGGAUAUCGUGUACAAAGUACACGAGAAGGCUUCACAUGAGGAUCACCCAUGUAUCGAGGUGAAACACCUUGG [Omei Exc(NG)1 Bv2] (Eterna round: R96, puzzle: Exclusion NG 1)	703 nM	285 nM	318 nM	–	–	–
AAGAAACAUGAGGAUCACCCAUGUGAGGAUAUGGAAAAGAAAAGAAAAGAAAGAAGAAUCAGAAGGCACAAAGG [salish99-ex1_r3_020] (puzzle: Exclusion 1)	–	–	–	40.8 nM	33.7 nM	37.6 nM
UACAUGAGGAUCACCCAUGUUUUGUCGUGUAUGGUAUUUAUCUAGGAUAUCAAUUGGUUUAUUUAUGAGAAGGAGAAUAUUAAU [JMF's solution 57] (Eterna round: R96, puzzle: Exclusion NG 3)	36.1 nM	31.6 nM	33.3 nM	–	–	–
GCCCGGGCAGGAUAUACAAGCUUGAGCUGAAAAGUUCGAGUACAUGAGGAUCACCCAUGUAGAAGGGCCCGGGC [-37.5, -35.6 kcal, A 28% 1 bis] (Eterna round: R97, puzzle: Exclusion 2)	29.4 nM	–	18.7 nM	–	–	–
GCUAAGGUAGGAUAUUGCGACGUGAACAUGAGGAUCACCCAUGUCUGGUCUGACAGGCAUCAAGAAGGGCCAGUCU [Eternabot (L2) Solution 30] (Eterna round: R97, puzzle: Exclusion 5)	49.7 nM	–	62.7 nM	–	–	–
GUUAUGUCAGGAUAUGCUAAUGAUGAGUGAUCAGACAUGAUGUAGAAGGGACAUGAGGAUCACCCAUGUAAUAU [EX4 #8] (Eterna round: R97, puzzle: Exclusion 4)	114 nM	–	122 nM	–	–	–
UGUGCGUAUGUGAGGAUAUGCUGGUCCUUGGAUCAGCAGAAGGCACAUGAGGAUCACCCAUGUGGUGUCGUACU [salish99_Bmod_Ex4_009] (puzzle: Brourd's mod of Exclusion 4)	–	–	–	–	202 nM	–
GCCUUACCGGUCAGGAUAUACAUUCGUCACUCCUUGUAGAAGGGACAUGAGGAUCACCCAUGUACAUUACAUUC [alecazam41] (Eterna round: R97, puzzle: Brourd's mod of Exclusion 4)	22 nM	–	26.1 nM	–	–	–
ACAUGUCAUUGAGGAUAUUGCAAACAUGAGGAUCACCCAUGUAAACGGAUGCUCUUACGUGGGUUCGAGAAGGCGAUGUACAUU [Ex NG2 #93] (Eterna round: R96, puzzle: Exclusion NG 2)	930 nM	39.8 nM	242 nM	–	–	–
AGACGGAGAAAAGGAUAUGAGACACUAGACGUCUCAGAAGGUUUAGCCAGUAGCUCCAACAUGAGGAUCACCCAUGUGGUCGUA [Eternabot solution 41] (Eterna round: R96, puzzle: Exclusion NG 1)	50 nM	108 nM	184 nM	–	–	–
GAGAGGUCAGGAUAUACGGAGAGAGGGAGUUGGUGAGGGUAACAUGAGGAUCACCCAUGUAGAAGGGACUAAGG [JR_Exclu2_Sub077] (puzzle: Exclusion 2)	–	–	–	–	22.8 nM	–
